# In US8685655B2, “Dissociation method and dissociation agent for avidin and biotin derivatives” (JSR Corporation, priority 2009, dated 2014):
# Columns and labels:
# [1] = target: T1, streptavidin magnetic particles-desthiobiotin-bound probe molecules-target substance complex (Streptomyces avidinii, UniProt P22629); experiment: Dissociation efficiency: target cells released from the capturing carrier by the dissociation agent (quantitative PCR cell count); conditions: 250 μL dissociation agent liquid in PBS, room temperature, 20 minutes; HT-29 cells isolated / cells bound x 100
# T1 construct: purchased Invitrogen Dynabeads M-280 Streptavidin
# Experimental: The number of cells was determined by measuring the quantity of genome DNA according to the quantitative PCR method.
# (1) Measurement of the Number of Cells Bound to the Capturing Carrier:
# 50 μL of 0.8 mg/mL solution of proteinase K (protease, manufactured by Qiagen N.V.) dissolved in 10-mM Tris-HCl buffer solution (pH: 8.3) was added to the total amount of the combination of the capturing carrier and the target cells yielded in the below Examples and Comparative Example, and the resultant was reacted by heating at 55° C. for 15 minutes to elute DNA. Subsequently, this solution was heated at 95° C. for 20 minutes to inactivate proteinase K. 20 μL of the resultant DNA solution was added to 30 μL of a quantitative PCR cocktail (Fast Start Taq, manufactured by Roche (Co.)) to carry out quantitative PCR. Other DNA solutions prepared by the same method using predetermined number of cells were used to prepare a calibration curve. A 7500 Real-Time PCR System, manufactured by Applied Biosystems (Co.), was used for the quantitative PCR.
# (2) Measurement of the Number of Cells Isolated from the Capturing Carrier: […]
# The efficiency of dissociation of (strept) avidin from the biotin derivative was determined according to the following equation: Efficiency of Dissociation (%)=“the number of the cells isolated from the capturing carrier”/“the number of the cells bound to the capturing carrier”×100
# 1 mg aliquots of the capturing carrier yielded in Preparation Example 2 were added into test tubes. […] The number of the cells bound to the isolated capturing carrier was measured, and the number was 8,500, which was 85% of the number of the cells used for the Example. […]
# avidin = avidin (Gallus gallus, UniProt P02701); conditions: cited from earlier work
# avidin, sequence (P02701 25-152, species assumed): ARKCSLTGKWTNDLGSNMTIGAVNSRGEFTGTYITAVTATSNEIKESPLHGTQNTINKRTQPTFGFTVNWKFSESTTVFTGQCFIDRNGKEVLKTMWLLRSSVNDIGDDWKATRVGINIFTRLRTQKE
# T1 sequence (P22629 25-183, one chain of several): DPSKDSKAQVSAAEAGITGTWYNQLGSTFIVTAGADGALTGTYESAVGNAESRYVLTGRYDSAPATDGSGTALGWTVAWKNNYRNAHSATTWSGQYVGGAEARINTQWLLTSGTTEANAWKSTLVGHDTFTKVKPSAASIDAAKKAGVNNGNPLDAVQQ
Compound,Dissociation efficiency (%) [1] [%],binding constant with avidin (avidin)
BSA-Biotin6: dissociation agent in which six (6) in average of biotin were bound to one molecule of BSA,70,
BSA-Biotin10: dissociation agent in which ten (10) in average of biotin were bound to one molecule of BSA,96,
"O=C(O)CCCC[C@@H]1SC[C@@H]2NC(=O)N[C@@H]21 [Biotin, biotin]",3,10^15 M
